Experimental findings from patent US20250026843A1 (ANHUI BIOX VISION BIOLOGICAL TECHNOLOGY, published 2025) are described below.

For experiment [1], the target named is T1, P17-His fusion protein (extracellular domain of human CD40 with a His tag) (human, UniProt P25942 21-193).
T1 construct: range 21-193; not shown: His tag
Nature of the experiment: ELISA, P17-His coated on plate, anti-human Fc-HRP detection. Here is the method:
The obtained 4 bispecific antibodies were detected for affinity against the extracellular domain of human CD40 (Uniprot: positions 21 to 193 of P25942) through ELISA. The extracellular domain of human CD40 carried a His tag, also referred to herein as a P17-His fusion protein.
2 μg/mL of the P17-His fusion protein was coated onto a 96-well ELISA plate at 30 μL per well at 4° C. overnight. The next day, after encapsulating in 5% PBSM (PBS+5% Milk) at room temperature for 2 h, serially diluted (20 nM in the first well, 10-fold dilution in the second well, 3-fold dilution in the third to seventh wells, and 4-fold dilution in the seventh to eighth wells) anti-CD40×CLDN18.2 bispecific antibody, positive control APX005 (sequence derived from Apexigen Inc. US20120301488A1, prepared in the laboratory), or isotype IgG1 negative control were added. After culturing at room temperature for 1 h, washed 3 times with PBST (PBS+0.05% Tween-20), and then 30 μL of Goat-anti-human-Fc-HRP (abcam, ab97225) was added. After culturing at room temperature for 1 h, washed 3 times with PBST (PBS+0.05% Tween-20), and TMB colorimetric solution was added for color development for 5 to 30 min. After termination, OD450 was detected through a microplate reader (Beckman Coulter), and the results were analyzed and plotted through Graphpad 7.0 to evaluate the binding of the bispecific antibody to the P17-His fusion protein.
A general note: In an ELISA, binding on a coated surface is turned into a signal by an enzyme label.

Experiment [2] concerns the target T2, human CLDN18.2 expressed on the cell surface of HEK293 cells (human, UniProt P56856-2 1-261).
T2 construct: whole, on cells
T2 sequence (looked up): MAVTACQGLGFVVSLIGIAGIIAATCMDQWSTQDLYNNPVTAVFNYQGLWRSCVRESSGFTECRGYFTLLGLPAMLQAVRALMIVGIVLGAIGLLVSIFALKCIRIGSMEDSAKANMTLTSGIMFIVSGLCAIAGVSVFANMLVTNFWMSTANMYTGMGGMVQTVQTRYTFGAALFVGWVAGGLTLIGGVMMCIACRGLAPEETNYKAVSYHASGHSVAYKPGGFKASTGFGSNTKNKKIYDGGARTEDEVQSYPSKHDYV
Put plainly: flow cytometry on 18.2-HEK293 cells. On the procedure: After culturing at 4° C. for 30 min, the cells were washed and added with 100 μL of 1:300 diluted Goat F(ab′)₂ Anti-human Fc (PE) and cultured for 30 min. The cells were then washed and the binding of the bispecific antibody to CLDN18.2 expressed on the surface of HEK293 cells was detected through flow cytometry.

The target of experiment [3] is T3, human CLDN18.1 expressed on the cell surface of HEK293 cells (human, UniProt P56856 1-261).
T3 construct: whole, on cells
T3 sequence (looked up): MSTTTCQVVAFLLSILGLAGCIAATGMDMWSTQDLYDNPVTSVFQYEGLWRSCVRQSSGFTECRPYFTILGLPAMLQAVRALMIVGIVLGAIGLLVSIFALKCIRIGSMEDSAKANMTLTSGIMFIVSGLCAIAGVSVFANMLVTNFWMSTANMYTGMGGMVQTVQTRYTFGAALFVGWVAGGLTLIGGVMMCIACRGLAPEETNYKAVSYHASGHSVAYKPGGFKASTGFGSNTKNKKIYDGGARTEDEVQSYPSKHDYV
Nature of the experiment: flow cytometry on 18.1-HEK293 cells. Here is the method:
After culturing at 4° C. for 30 min, the cells were washed and added with 100 μL of 1:300 diluted PE-labeled Goat F(ab′)₂ Anti-human Fc (PE) and cultured at 4° C. for 30 min. The cells were then washed and the binding of the bispecific antibody to CLDN18.1 molecules expressed on the surface of HEK293 cells was detected through flow cytometry.
A general note: In flow cytometry, cells or beads pass a laser one at a time.

T1 sequence (P25942 21-193 limits assumed): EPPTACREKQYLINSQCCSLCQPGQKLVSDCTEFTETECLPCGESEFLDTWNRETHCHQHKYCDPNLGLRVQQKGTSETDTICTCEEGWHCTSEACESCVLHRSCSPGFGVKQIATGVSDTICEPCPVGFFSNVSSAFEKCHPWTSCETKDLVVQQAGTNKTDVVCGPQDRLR

B1: APX005 (antibody, V domains shown)
VH: QVQLVESGGGVVQPGRSLRLSCAASGFSFSSTYVCWVRQAPGKGLEWIACIYTGDGTNYSASWAKGRFTISKDSSKNTVYLQMNSLRAEDTAVYFCARPDITYGFAINFWGPGTLVTVSS
VL: DIQMTQSPSSLSASVGDRVTIKCQASQSISSRLAWYQQKPGKPPKLLIYRASTLASGVPSRFSGSGSGTDFTLTISSLQPEDVATYYCQCTGYGISWPIGGGTKVEIK
Regarding B1, the response in experiment [1] was half-maximal at 0.0612 nM (EC50).

B2: C8-WT-NA3S-HC (bispecific antibody, human IgG1, kappa, N297Q)
heavy: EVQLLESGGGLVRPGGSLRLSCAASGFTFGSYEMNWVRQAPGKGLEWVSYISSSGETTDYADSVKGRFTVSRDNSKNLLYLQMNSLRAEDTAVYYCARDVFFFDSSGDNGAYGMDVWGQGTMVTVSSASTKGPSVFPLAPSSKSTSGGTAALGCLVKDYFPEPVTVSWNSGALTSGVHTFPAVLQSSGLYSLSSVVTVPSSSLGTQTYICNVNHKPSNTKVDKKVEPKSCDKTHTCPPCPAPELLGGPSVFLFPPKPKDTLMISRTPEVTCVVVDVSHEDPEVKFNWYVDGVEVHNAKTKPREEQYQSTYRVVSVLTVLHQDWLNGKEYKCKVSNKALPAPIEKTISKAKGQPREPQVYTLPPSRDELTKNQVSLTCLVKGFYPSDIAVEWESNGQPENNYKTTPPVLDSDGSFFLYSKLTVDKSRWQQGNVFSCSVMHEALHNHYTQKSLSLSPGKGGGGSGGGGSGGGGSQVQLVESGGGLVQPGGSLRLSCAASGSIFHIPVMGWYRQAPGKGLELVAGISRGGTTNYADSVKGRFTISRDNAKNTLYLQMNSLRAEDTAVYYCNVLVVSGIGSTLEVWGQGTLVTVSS
light: DIQLTQSPSSLTASVGDRVTITCRSSQGIRSSLAWYQQKPGKPPKLLIYGASSLEGGVPSRFSGSGSGTDFTLTISSLQPEDFATYYCQQLNSFPSTFGQGTKLEIKRTVAAPSVFIFPPSDEQLKSGTASVVCLLNNFYPREAKVQWKVDNALQSGNSQESVTEQDSKDSTYSLSSTLTLSKADYEKHKVYACEVTHQGLSSPVTKSFNRGEC
notes: Fc is hIgG1 N297Q; also called anti-CD40×CLDN18.2 bispecific antibody; bispecific antibody of the present invention
Consider B2, for which the binding result in experiment [2] was “binds”; in experiment [3], “no binding (tested: 115.6 nM highest concentration tested)”. For the same molecule, the EC50 (commonly the midpoint of the concentration-response curve) in experiment [1] is 0.11 nM.

B3: C8-10-NA3S-HC (bispecific antibody, human IgG1, kappa, N297Q)
heavy: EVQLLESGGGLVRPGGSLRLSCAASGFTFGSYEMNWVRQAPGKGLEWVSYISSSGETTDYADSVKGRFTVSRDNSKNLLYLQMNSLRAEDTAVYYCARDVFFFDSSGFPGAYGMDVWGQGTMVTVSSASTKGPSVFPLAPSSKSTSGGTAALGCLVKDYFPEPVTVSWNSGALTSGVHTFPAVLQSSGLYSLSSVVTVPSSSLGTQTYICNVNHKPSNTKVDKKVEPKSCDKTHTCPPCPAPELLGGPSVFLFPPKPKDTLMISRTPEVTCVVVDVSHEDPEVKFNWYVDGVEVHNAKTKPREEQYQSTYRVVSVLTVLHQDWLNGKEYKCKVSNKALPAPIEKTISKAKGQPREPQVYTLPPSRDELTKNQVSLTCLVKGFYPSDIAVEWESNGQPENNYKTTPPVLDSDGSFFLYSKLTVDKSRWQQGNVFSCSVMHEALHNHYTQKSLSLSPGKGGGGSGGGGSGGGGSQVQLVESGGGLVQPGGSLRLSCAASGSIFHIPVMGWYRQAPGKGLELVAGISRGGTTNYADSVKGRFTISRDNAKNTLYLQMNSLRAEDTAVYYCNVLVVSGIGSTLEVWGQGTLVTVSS
light: DIQLTQSPSSLTASVGDRVTITCRSSQGIRSSLAWYQQKPGKPPKLLIYGASSLEGGVPSRFSGSGSGTDFTLTISSLQPEDFATYYCQQLNSFPSTFGQGTKLEIKRTVAAPSVFIFPPSDEQLKSGTASVVCLLNNFYPREAKVQWKVDNALQSGNSQESVTEQDSKDSTYSLSSTLTLSKADYEKHKVYACEVTHQGLSSPVTKSFNRGEC
notes: as for B2
For B3, the binding result in experiment [2] is “binds”; in experiment [3] it was “no binding (tested: 115.6 nM highest concentration tested)”. Moreover, the half-maximal effective concentration (EC50) in experiment [1] was found to be 0.104 nM.

B4: C8-2-NA3S-HC (bispecific antibody, human IgG1, kappa, N297Q)
heavy: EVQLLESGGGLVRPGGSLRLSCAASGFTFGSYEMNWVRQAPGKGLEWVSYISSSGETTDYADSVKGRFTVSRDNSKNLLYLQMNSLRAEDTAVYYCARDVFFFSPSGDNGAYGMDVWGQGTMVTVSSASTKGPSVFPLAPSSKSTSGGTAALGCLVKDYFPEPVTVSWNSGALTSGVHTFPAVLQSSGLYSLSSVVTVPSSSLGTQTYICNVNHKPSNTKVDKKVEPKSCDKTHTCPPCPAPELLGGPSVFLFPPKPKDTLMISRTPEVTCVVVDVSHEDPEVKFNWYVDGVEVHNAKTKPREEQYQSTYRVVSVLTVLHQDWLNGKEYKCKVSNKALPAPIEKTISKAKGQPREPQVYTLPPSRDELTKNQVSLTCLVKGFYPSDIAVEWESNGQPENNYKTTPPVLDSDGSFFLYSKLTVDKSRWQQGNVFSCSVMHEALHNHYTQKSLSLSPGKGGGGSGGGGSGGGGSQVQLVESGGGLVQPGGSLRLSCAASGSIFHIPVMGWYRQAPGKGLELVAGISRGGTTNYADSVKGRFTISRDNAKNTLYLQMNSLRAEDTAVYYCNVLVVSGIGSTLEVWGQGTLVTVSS
light: DIQLTQSPSSLTASVGDRVTITCRSSQGIRSSLAWYQQKPGKPPKLLIYGASSLEGGVPSRFSGSGSGTDFTLTISSLQPEDFATYYCQQLNSFPSTFGQGTKLEIKRTVAAPSVFIFPPSDEQLKSGTASVVCLLNNFYPREAKVQWKVDNALQSGNSQESVTEQDSKDSTYSLSSTLTLSKADYEKHKVYACEVTHQGLSSPVTKSFNRGEC
notes: as for B2
As for B4, the binding result in experiment [2] was “binds”; in experiment [3], “no binding (tested: 115.6 nM highest concentration tested)”. In experiment [1], the EC50 was found to be 0.127 nM.

B5: C8-6-NA3S-HC (bispecific antibody, human IgG1, kappa, N297Q)
heavy: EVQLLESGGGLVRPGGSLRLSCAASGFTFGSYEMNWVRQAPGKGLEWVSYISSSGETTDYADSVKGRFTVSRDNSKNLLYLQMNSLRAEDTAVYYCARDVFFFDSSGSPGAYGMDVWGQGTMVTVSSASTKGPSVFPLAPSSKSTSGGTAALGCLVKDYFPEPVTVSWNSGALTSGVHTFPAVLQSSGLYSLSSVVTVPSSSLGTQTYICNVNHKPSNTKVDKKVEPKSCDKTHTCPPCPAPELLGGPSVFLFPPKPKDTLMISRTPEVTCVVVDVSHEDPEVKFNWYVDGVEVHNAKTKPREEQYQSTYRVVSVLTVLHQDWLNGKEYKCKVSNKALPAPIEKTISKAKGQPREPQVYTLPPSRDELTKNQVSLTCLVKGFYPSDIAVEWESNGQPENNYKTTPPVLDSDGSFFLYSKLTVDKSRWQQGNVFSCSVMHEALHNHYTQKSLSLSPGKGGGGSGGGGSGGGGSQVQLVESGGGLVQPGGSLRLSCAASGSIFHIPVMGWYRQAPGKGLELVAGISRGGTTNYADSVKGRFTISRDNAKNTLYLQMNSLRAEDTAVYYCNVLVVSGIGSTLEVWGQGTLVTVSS
light: DIQLTQSPSSLTASVGDRVTITCRSSQGIRSSLAWYQQKPGKPPKLLIYGASSLEGGVPSRFSGSGSGTDFTLTISSLQPEDFATYYCQQLNSFPSTFGQGTKLEIKRTVAAPSVFIFPPSDEQLKSGTASVVCLLNNFYPREAKVQWKVDNALQSGNSQESVTEQDSKDSTYSLSSTLTLSKADYEKHKVYACEVTHQGLSSPVTKSFNRGEC
notes: as for B2
Turning to B5, the binding result is given as “binds” in experiment [2] and “no binding (tested: 115.6 nM highest concentration tested)” in experiment [3]. Besides, in experiment [1], the EC50 was 0.102 nM.
